One series has as its target LXRa:RXRa (Homo sapiens, UniProt Q13133;P19793 full;full). The series can be described thus: no ligand; PBM; 270 nM : 90 nM RXRa; PBS pH 7.4, 2% milk, 0.02% Triton X-100, 1 mM DTT, BSA, 0.4 mg/ml salmon testes DNA. To be noted: tags: His kept;His cleaved; copies: 1;1; label: surface-attached array probe. The procedure, abridged: (§1)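 On custom Agilent 4×180K arrays, double-stranded probes with 34-nt variable regions carried direct-repeat seeds, single-nucleotide variants, half-site ablations or random human genomic background. Ligand-free nuclear receptor dimers were applied for 1 h, and binding was read with antibodies against each partner (one per run). Binding z-scores come from regression-normalized fluorescence, with the random background probes as reference.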

The target in another series is LXRb:RXRa (Homo sapiens, UniProt P55055;P19793 full;full). The series is described as above. The note with it: tags: His kept;His cleaved; copies: 1;1; label: surface-attached array probe. The essentials:
as §1

Another series addresses RARg:RXRa (Homo sapiens, UniProt P13631;P19793 full;full). The description is as above. The note with it: tags: His kept;His cleaved; copies: 1;1; label: surface-attached array probe. The procedure, abridged: as §1
The next series deals with PPARa:RXRa (Homo sapiens, UniProt Q07869;P19793 full;full). Described as above. To be noted: tags: GST kept;His cleaved; copies: 1;1; label: surface-attached array probe. The procedure, abridged: as §1
The target of the next series is RARa:RXRa (Homo sapiens, UniProt P10276;P19793 full;full). Described as above. To be noted: tags: His kept;His cleaved; copies: 1;1; label: surface-attached array probe. The procedure, abridged:
as §1

A further series concerns the target RARb:RXRa (Homo sapiens, UniProt P10826;P19793 full;full). The description is as above. The note with it: tags: His kept;His cleaved; copies: 1;1; label: surface-attached array probe. The essentials: as §1
A further series has as its target RXRa (Homo sapiens, UniProt P19793). The series can be described thus: no ligand; PBM; 180 nM; PBS pH 7.4, 2% milk, 0.02% Triton X-100, 1 mM DTT, BSA, 0.4 mg/ml salmon testes DNA. To be noted: tags: His cleaved; chain copies: 2; label: surface-attached array probe.
The next series has as its target PXR:RXRa (Homo sapiens, UniProt O75469;P19793 full;full). The series can be described thus: no ligand; PBM; 270 nM : 90 nM RXRa; PBS pH 7.4, 2% milk, 0.02% Triton X-100, 1 mM DTT, BSA, 0.4 mg/ml salmon testes DNA. To be noted: tags: His kept;His cleaved; copies: 1;1; label: surface-attached array probe. The procedure, abridged:
as §1

A further series has as its target FXR:RXRa (Homo sapiens, UniProt Q96RI1;P19793 full;full). The description is as above. To be noted: tags: His kept;His cleaved; copies: 1;1; label: surface-attached array probe. The procedure, abridged:
as §1

Another series has as its target VDR:RXRa (Homo sapiens, UniProt P11473;P19793 full;full). The description is as above. To be noted: tags: His kept;His cleaved; copies: 1;1; label: surface-attached array probe. The essentials: as §1

This passage reports binding signal results from publication PMC6555819, “Comprehensive study of nuclear receptor DNA binding provides a revised framework for understanding receptor specificity”.

LXRb:RXRa, sequence (P55055 whole entry, chain 1 of 2): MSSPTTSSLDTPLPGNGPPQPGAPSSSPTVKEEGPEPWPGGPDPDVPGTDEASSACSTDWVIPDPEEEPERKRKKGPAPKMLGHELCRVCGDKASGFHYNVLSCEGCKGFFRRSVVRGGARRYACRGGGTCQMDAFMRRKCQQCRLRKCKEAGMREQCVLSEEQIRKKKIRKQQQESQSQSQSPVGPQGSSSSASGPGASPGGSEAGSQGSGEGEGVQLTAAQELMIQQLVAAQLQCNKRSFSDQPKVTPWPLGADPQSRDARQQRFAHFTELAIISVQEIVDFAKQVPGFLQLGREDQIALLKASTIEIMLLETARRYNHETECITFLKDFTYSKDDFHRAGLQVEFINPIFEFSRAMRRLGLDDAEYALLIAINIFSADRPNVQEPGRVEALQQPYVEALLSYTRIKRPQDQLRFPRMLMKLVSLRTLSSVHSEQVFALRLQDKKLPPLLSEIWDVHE
LXRb:RXRa, sequence (P19793 whole entry, chain 2 of 2): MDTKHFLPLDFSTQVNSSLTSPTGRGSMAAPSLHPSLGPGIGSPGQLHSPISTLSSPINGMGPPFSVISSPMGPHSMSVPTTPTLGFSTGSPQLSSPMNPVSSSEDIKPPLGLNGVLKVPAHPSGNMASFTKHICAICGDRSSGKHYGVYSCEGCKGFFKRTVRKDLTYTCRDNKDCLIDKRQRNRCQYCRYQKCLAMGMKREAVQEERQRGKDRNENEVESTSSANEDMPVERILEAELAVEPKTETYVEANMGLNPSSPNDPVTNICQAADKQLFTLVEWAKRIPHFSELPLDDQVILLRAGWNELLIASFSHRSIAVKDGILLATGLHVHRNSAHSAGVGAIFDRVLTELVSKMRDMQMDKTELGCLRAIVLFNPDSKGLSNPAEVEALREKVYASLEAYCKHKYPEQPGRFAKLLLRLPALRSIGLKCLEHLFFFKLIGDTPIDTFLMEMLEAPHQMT
LXRa:RXRa, sequence (Q13133 whole entry, chain 1 of 2): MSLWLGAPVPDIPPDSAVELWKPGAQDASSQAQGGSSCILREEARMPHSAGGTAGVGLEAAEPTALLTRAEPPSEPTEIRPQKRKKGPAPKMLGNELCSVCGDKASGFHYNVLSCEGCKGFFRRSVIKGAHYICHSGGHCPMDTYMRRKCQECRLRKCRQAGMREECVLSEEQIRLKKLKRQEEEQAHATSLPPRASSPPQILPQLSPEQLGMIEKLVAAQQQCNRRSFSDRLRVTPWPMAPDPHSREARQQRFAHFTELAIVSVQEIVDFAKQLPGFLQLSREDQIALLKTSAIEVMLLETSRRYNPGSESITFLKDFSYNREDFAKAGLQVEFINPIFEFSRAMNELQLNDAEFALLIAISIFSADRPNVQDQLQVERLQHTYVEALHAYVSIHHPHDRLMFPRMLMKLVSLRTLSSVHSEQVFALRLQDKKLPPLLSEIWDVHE
LXRa:RXRa, sequence (P19793 whole entry, chain 2 of 2): as the sequence (P19793 whole entry, chain 2 of 2) above
VDR:RXRa, sequence (P11473 whole entry, chain 1 of 2): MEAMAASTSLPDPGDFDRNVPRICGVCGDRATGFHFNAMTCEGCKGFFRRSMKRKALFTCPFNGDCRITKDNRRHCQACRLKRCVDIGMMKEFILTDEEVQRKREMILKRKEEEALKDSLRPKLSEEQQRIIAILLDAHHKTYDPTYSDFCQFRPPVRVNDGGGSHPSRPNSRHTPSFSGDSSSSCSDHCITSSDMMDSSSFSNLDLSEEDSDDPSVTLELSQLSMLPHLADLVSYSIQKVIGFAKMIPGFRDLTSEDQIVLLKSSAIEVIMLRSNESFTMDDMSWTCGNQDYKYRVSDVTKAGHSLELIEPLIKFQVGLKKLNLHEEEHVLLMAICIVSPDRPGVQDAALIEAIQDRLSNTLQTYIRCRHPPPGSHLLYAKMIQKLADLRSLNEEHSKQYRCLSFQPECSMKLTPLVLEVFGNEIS
VDR:RXRa, sequence (P19793 whole entry, chain 2 of 2): as the sequence (P19793 whole entry, chain 2 of 2) above
PPARa:RXRa, sequence (Q07869 whole entry, chain 1 of 2): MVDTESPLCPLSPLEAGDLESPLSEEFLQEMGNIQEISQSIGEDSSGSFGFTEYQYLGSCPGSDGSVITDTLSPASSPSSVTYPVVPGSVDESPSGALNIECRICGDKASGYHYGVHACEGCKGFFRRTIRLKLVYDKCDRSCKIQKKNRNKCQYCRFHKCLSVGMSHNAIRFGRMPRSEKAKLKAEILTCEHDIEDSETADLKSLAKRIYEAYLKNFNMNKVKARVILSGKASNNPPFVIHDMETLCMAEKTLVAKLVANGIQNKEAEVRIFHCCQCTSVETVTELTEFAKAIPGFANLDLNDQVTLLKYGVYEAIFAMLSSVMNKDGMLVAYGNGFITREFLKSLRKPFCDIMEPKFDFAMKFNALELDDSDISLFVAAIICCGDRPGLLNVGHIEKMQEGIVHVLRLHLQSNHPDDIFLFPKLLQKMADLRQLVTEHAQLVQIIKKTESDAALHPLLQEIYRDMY
PPARa:RXRa, sequence (P19793 whole entry, chain 2 of 2): as the sequence (P19793 whole entry, chain 2 of 2) above
PXR:RXRa, sequence (O75469 whole entry, chain 1 of 2): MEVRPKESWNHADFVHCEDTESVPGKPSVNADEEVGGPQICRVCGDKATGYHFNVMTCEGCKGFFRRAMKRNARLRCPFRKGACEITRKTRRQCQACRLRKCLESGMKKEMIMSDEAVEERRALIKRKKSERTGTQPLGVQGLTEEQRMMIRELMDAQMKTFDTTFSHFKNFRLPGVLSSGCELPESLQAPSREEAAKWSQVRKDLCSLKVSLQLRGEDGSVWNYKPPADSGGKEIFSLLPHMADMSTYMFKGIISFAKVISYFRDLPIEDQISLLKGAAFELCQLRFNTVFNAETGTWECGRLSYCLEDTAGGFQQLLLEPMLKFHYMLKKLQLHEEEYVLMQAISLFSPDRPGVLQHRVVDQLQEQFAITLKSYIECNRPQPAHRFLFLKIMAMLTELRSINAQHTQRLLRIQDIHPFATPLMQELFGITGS
PXR:RXRa, sequence (P19793 whole entry, chain 2 of 2): as the sequence (P19793 whole entry, chain 2 of 2) above

B1: NRC3_wobSeed49_DR2_G16A_o1 (dsDNA)
DNA 1: GCCAAACTAGGTCAAAAGGTCAAAGTCCGCTTCCCGGCGATTGACAGCGTAGAATGAAGG
DNA 2: CCTTCATTCTACGCTGTCAATCGCCGGGAAGCGGACTTTGACCTTTTGACCTAGTTTGGC
Regarding B1, the binding signal was 7.1 PBM z-score against 500 random probes in the series with LXRa:RXRa; 6.34 PBM z-score against 500 random probes in the series with LXRb:RXRa; 8.94 PBM z-score against 500 random probes with RARg:RXRa; 7.14 PBM z-score against 500 random probes with PPARa:RXRa; 8.77 PBM z-score against 500 random probes with RARa:RXRa; 6 PBM z-score against 500 random probes in the series with RARb:RXRa. The binding signal with RXRa is 9.09 PBM z-score against 500 random probes.

B2: NRC3_random_hg19_64_o1 (dsDNA)
DNA 1: GCAATCCAATTGGAGGTGCACTCGTCTAAGTGGTCCGCGATTGACAGCGTAGAATGAAGG
DNA 2: CCTTCATTCTACGCTGTCAATCGCGGACCACTTAGACGAGTGCACCTCCAATTGGATTGC
Consider B2, for which the figures for the binding signal in the series with RARa:RXRa and with PXR:RXRa were -0.24 PBM z-score against 500 random probes and -0.06 PBM z-score against 500 random probes, respectively.

B3: NRC3_random_hg19_186_o1 (dsDNA)
DNA 1: GCTTTCGTTACTGTAGCCTTGTAGTATAGTTTGAAGGCGATTGACAGCGTAGAATGAAGG
DNA 2: CCTTCATTCTACGCTGTCAATCGCCTTCAAACTATACTACAAGGCTACAGTAACGAAAGC
Turning to B3, the binding signal was 0.29 PBM z-score against 500 random probes in the series with RARa:RXRa and 0.22 PBM z-score against 500 random probes with PXR:RXRa.

B4: NRC3_wobSeed124_DR5_C12T_o1 (dsDNA)
DNA 1: GCCCTACTGGGTCATTCAGAGGTCATTGATCATATGGCGATTGACAGCGTAGAATGAAGG
DNA 2: CCTTCATTCTACGCTGTCAATCGCCATATGATCAATGACCTCTGAATGACCCAGTAGGGC
Regarding B4, the binding signal was 8.13 PBM z-score against 500 random probes with RARg:RXRa, 7.55 PBM z-score against 500 random probes in the series with RARa:RXRa and 6.43 PBM z-score against 500 random probes with PXR:RXRa.

B5: NRC3_random_hg19_155_o1 (dsDNA)
DNA 1: GCGAGTGCTATGCTTGCTTTCTATCTCATACAGTATGCGATTGACAGCGTAGAATGAAGG
DNA 2: CCTTCATTCTACGCTGTCAATCGCATACTGTATGAGATAGAAAGCAAGCATAGCACTCGC
B5: the binding signal in the series with LXRa:RXRa was -0.77 PBM z-score against 500 random probes; with LXRb:RXRa, -0.78 PBM z-score against 500 random probes; with RARg:RXRa, -0.56 PBM z-score against 500 random probes; with PPARa:RXRa, -0.78 PBM z-score against 500 random probes; with RARa:RXRa it was -1.16 PBM z-score against 500 random probes.

B6: NRC3_random_hg19_58_o1 (dsDNA)
DNA 1: GCAAGACTCCTGGCTCTGATTCTAAACTAAACATAGGCGATTGACAGCGTAGAATGAAGG
DNA 2: CCTTCATTCTACGCTGTCAATCGCCTATGTTTAGTTTAGAATCAGAGCCAGGAGTCTTGC
Turning to B6, the binding signal in the series with RARa:RXRa was -0.89 PBM z-score against 500 random probes; with PXR:RXRa, -0.84 PBM z-score against 500 random probes.

B7: NRC3_random_hg19_341_o1 (dsDNA)
DNA 1: GCCCCAGATGACGGGTTGATATGGGCAGCAAACCGCGCGATTGACAGCGTAGAATGAAGG
DNA 2: CCTTCATTCTACGCTGTCAATCGCGCGGTTTGCTGCCCATATCAACCCGTCATCTGGGGC
With B7, the binding signal in the series with RARa:RXRa was -0.22 PBM z-score against 500 random probes; with PXR:RXRa, -0.3 PBM z-score against 500 random probes.

B8: NRC3_wobSeed85_DR3_C7A_o1 (dsDNA)
DNA 1: GCCGTCAAAGGTCAGAGAGGTCAGTGAATGCCGAGTGCGATTGACAGCGTAGAATGAAGG
DNA 2: CCTTCATTCTACGCTGTCAATCGCACTCGGCATTCACTGACCTCTCTGACCTTTGACGGC
For B8, the binding signal with LXRb:RXRa was 5.98 PBM z-score against 500 random probes; in the series with FXR:RXRa it was 8.03 PBM z-score against 500 random probes; in the series with RARg:RXRa, 7.93 PBM z-score against 500 random probes; with RARa:RXRa, 7.18 PBM z-score against 500 random probes; with VDR:RXRa, 7.92 PBM z-score against 500 random probes; with RARb:RXRa, 5.97 PBM z-score against 500 random probes. Moreover, in the series with RXRa, the binding signal was 7.98 PBM z-score against 500 random probes.

B9: NRC3_wobSeed130_DR5_G22A_o1 (dsDNA)
DNA 1: GCCTCGAAAGGTCGTGCTCAGATGAGTATACCAAACGCGATTGACAGCGTAGAATGAAGG
DNA 2: CCTTCATTCTACGCTGTCAATCGCGTTTGGTATACTCATCTGAGCACGACCTTTCGAGGC
Consider B9, for which the binding signal is 3.83 PBM z-score against 500 random probes with LXRa:RXRa and 3.27 PBM z-score against 500 random probes with RARa:RXRa.

B10: NRC3_wobSeed99_DR4_T22G_o1 (dsDNA)
DNA 1: GCTCTCGGAGGACACGAAAGGGCAGAGCTCGACATCGCGATTGACAGCGTAGAATGAAGG
DNA 2: CCTTCATTCTACGCTGTCAATCGCGATGTCGAGCTCTGCCCTTTCGTGTCCTCCGAGAGC
B10: the binding signal is 0.47 PBM z-score against 500 random probes with RARa:RXRa and 0.23 PBM z-score against 500 random probes in the series with PXR:RXRa.

B11: NRC3_wobSeed72_DR2_C25G_o1 (dsDNA)
DNA 1: GCTCGAGTAGGTTACGGGGGCATTGAGGGATGAAGAGCGATTGACAGCGTAGAATGAAGG
DNA 2: CCTTCATTCTACGCTGTCAATCGCTCTTCATCCCTCAATGCCCCCGTAACCTACTCGAGC
For B11, the binding signal with RARa:RXRa was 3.03 PBM z-score against 500 random probes; in the series with PXR:RXRa, 3.09 PBM z-score against 500 random probes.

B12: NRC3_wobSeed125_DR5_C8G_o1 (dsDNA)
DNA 1: GCCCTTAGGGGTCACTGACAGGTTATAGCATTTGGAGCGATTGACAGCGTAGAATGAAGG
DNA 2: CCTTCATTCTACGCTGTCAATCGCTCCAAATGCTATAACCTGTCAGTGACCCCTAAGGGC
Consider B12, for which the binding signal with LXRb:RXRa was 6.07 PBM z-score against 500 random probes; with FXR:RXRa it was 8.59 PBM z-score against 500 random probes; with RARg:RXRa it was 8.18 PBM z-score against 500 random probes; with PPARa:RXRa it was 6.95 PBM z-score against 500 random probes; with RARa:RXRa, 7.93 PBM z-score against 500 random probes; with VDR:RXRa it was 6.5 PBM z-score against 500 random probes. Moreover, the binding signal is 5.48 PBM z-score against 500 random probes in the series with RARb:RXRa and 9.59 PBM z-score against 500 random probes with RXRa.

B13: NRC3_wobSeed5_DR0_C8G_o1 (dsDNA)
DNA 1: GCCCTTAGGGGTCAAGGTTATAGCACGGGTGGTACGGCGATTGACAGCGTAGAATGAAGG
DNA 2: CCTTCATTCTACGCTGTCAATCGCCGTACCACCCGTGCTATAACCTTGACCCCTAAGGGC
B13: the binding signal was 6.63 PBM z-score against 500 random probes with LXRa:RXRa; 5.92 PBM z-score against 500 random probes with LXRb:RXRa; 8.51 PBM z-score against 500 random probes with FXR:RXRa; 7.74 PBM z-score against 500 random probes with RARg:RXRa; 6.97 PBM z-score against 500 random probes in the series with PPARa:RXRa; 7.21 PBM z-score against 500 random probes with RARa:RXRa. Besides, the results for the binding signal with RARb:RXRa and with RXRa were 5.75 PBM z-score against 500 random probes and 9.14 PBM z-score against 500 random probes, respectively.

B14: NRC3_wobSeed58_DR2_G14A_o1 (dsDNA)
DNA 1: GCATCGAAAGGTCATGAGGTGAGTATACAGAAAGGCGCGATTGACAGCGTAGAATGAAGG
DNA 2: CCTTCATTCTACGCTGTCAATCGCGCCTTTCTGTATACTCACCTCATGACCTTTCGATGC
As to B14, the binding signal in the series with LXRa:RXRa was 6.98 PBM z-score against 500 random probes; in the series with LXRb:RXRa, 5.92 PBM z-score against 500 random probes; in the series with FXR:RXRa, 8.53 PBM z-score against 500 random probes; with RARg:RXRa, 7.79 PBM z-score against 500 random probes; in the series with PPARa:RXRa it was 6.95 PBM z-score against 500 random probes; with RARa:RXRa, 7.09 PBM z-score against 500 random probes. Besides, the binding signal was 6.03 PBM z-score against 500 random probes with RARb:RXRa and 8.9 PBM z-score against 500 random probes with RXRa.

B15: NRC3_random_hg19_212_o1 (dsDNA)
DNA 1: GCAAGCATCCAGGACAAGGAAAGAGTAATCAATGGCGCGATTGACAGCGTAGAATGAAGG
DNA 2: CCTTCATTCTACGCTGTCAATCGCGCCATTGATTACTCTTTCCTTGTCCTGGATGCTTGC
As for B15, the binding signal with LXRa:RXRa is -0.29 PBM z-score against 500 random probes; with RARa:RXRa it was -0.03 PBM z-score against 500 random probes; with VDR:RXRa, 0.09 PBM z-score against 500 random probes.

B16: NRC3_random_hg19_112_o1 (dsDNA)
DNA 1: GCATCTGGCATATGTTCACTCCATGTACCACAGATAGCGATTGACAGCGTAGAATGAAGG
DNA 2: CCTTCATTCTACGCTGTCAATCGCTATCTGTGGTACATGGAGTGAACATATGCCAGATGC
Take B16: the binding signal was -0.28 PBM z-score against 500 random probes in the series with LXRa:RXRa and -0.07 PBM z-score against 500 random probes in the series with RARa:RXRa.

B17: NRC3_random_hg19_49_o1 (dsDNA)
DNA 1: GCACAGAAGGTAGCAAAGTAATCATGCTAGTGGTCAGCGATTGACAGCGTAGAATGAAGG
DNA 2: CCTTCATTCTACGCTGTCAATCGCTGACCACTAGCATGATTACTTTGCTACCTTCTGTGC
As to B17, the binding signal with LXRa:RXRa is -0.5 PBM z-score against 500 random probes; with RARa:RXRa, -0.41 PBM z-score against 500 random probes.
